The target in assay [1] is TNcc-HI E1/E2 complexes from lysates of HEK293 cells transfected with an E1/E2 expression plasmid (hepatitis C virus genotype 1a, strain TNcc-HI) (UniProt P26664). Nature of the assay: ELISA on lectin-captured E1/E2 complexes, negative control (FIG. 12). On the technique in general: ELISA stands for enzyme-linked immunosorbent assay.
Assay [2] concerns the target J6cc-HI E1/E2 complexes from lysates of HEK293 cells transfected with an E1/E2 expression plasmid (hepatitis C virus genotype 2a, strain J6cc-HI) (UniProt P26660). The description is as above.
Assay [3] has as its target DBNcc-HI E1/E2 complexes from lysates of HEK293 cells transfected with an E1/E2 expression plasmid (hepatitis C virus genotype 3a, strain DBNcc-HI) (UniProt Q81258). The description is as above.
For assay [4], the target named is TNcc-HI E1/E2 complexes from lysates of HEK293 cells transfected with an E1/E2 expression plasmid (hepatitis C virus genotype 1a, strain TNcc-HI) (UniProt P26664). The experiment in a line: ELISA on lectin-captured E1/E2 complexes, negative control (FIG. 13).
The target in assay [5] is J6cc-HI E1/E2 complexes from lysates of HEK293 cells transfected with an E1/E2 expression plasmid (hepatitis C virus genotype 2a, strain J6cc-HI) (UniProt P26660). The assay is described as above.
The target in assay [6] is DBNcc-HI E1/E2 complexes from lysates of HEK293 cells transfected with an E1/E2 expression plasmid (hepatitis C virus genotype 3a, strain DBNcc-HI) (UniProt Q81258). Described as above.
Assay [7] addresses TNcc-HI E1/E2 complexes from lysates of HEK293 cells transfected with an E1/E2 expression plasmid (hepatitis C virus genotype 1a, strain TNcc-HI) (UniProt P26664). The experiment in a line: ELISA on lectin-captured E1/E2 complexes, negative control (FIG. 11).
The target in assay [8] is J6cc-HI E1/E2 complexes from lysates of HEK293 cells transfected with an E1/E2 expression plasmid (hepatitis C virus genotype 2a, strain J6cc-HI) (UniProt P26660). The description is as above.
The target in assay [9] is DBNcc-HI E1/E2 complexes from lysates of HEK293 cells transfected with an E1/E2 expression plasmid (hepatitis C virus genotype 3a, strain DBNcc-HI) (UniProt Q81258). The description is as above.
The target in assay [10] is envelope proteins E1/E2 of the genotype 1a HCV seed stock derived from TNcc-PP-18 (hepatitis C virus genotype 1a, strain TNcc) (UniProt P26664). The experiment in a line: cell-based or functional assay.
In assay [11] the target is envelope proteins E1/E2 of the original genotype 3a recombinant virus DBN3acc (hepatitis C virus genotype 3a, strain DBN3acc) (UniProt Q81258). The experiment in a line: cell-based or functional assay.
The target in assay [12] is envelope proteins E1/E2 of high-yield genotype 1a recombinant virus TNcc-HI (hepatitis C virus genotype 1a, strain TNcc-HI) (UniProt P26664). The experiment in a line: cell-based or functional assay.
Assay [13] has as its target envelope proteins E1/E2 of high-yield genotype 3a recombinant virus DBNcc-HI (hepatitis C virus genotype 3a, strain DBNcc-HI) (UniProt Q81258). Nature of the assay: cell-based or functional assay.
Assay [14] addresses envelope proteins E1/E2 of high-yield genotype 2a recombinant virus J6cc-HI (hepatitis C virus genotype 2a, strain J6cc-HI) (UniProt P26660). Nature of the assay: cell-based or functional assay.

Consider “ECL sheep anti-mouse IgG horseradish-peroxidase linked whole antibody (GE Healthcare)”, for which the OD at 450 nm in [1], in assay [2], in [3], in [4], in assay [5] and in [6] was 0.05 OD each time. Further, the OD at 450 nm in assay [7], in assay [8] and in [9] was 0.05 OD in each case.

With human monoclonal antibody AR3A, the fold increased neutralization sensitivity against 1a(TN) in [10] came to 3 fold; in assay [12] it was 300 fold. Also, the fold increased neutralization sensitivity against 3a(DBN) is 167 fold in assay [11] and 1250 fold in assay [13]. For the same substance, the fold increased neutralization sensitivity against 2a(J6) in assay [14] was 440 fold.

Consider human monoclonal antibody AR4A, for which the fold increased neutralization sensitivity against 1a(TN) turned out to be 15 fold in assay [10] and 2400 fold in assay [12]. In addition, the fold increased neutralization sensitivity against 3a(DBN) came out at 22 fold in assay [11] and 220 fold in assay [13]. In addition, in assay [14], the fold increased neutralization sensitivity against 2a(J6) came out at 12 fold.

Values taken from patent US20260263580A1.
